Assays:
[1] = substrate: CCC(C)[C@H](NC(=O)[C@H](Cc1ccc(O)cc1)NC(=O)[C@@H](CCC(N)=O)NC(=O)[C@@H]1CCCN1C(=O)[C@@H](C)NC(=O)[C@@H](CCC(=O)O)NC(=O)[C@H](NC(=O)[C@H](Cc1ccc(O)cc1)NC(=O)[C@H](CCCN)NC(=O)[C@H](CCC(=O)O)NC(C)=O)C(C)O)C(=O)Sc1ccccc1; assay: cyclization kinetics with fengycin-peptide cyclase; assay type: biochemical; conditions: other: cyclization reaction, Lineweaver-Burk plot, 25 mM HEPES, 50 mM NaCl, pH 7, room temperature
Method: The purified substrate with the leaving group according to the present invention is then incubated with the respective peptide cyclase in the ratio of 1 (enzyme): 100 (substrate) in 25 mM HEPES, 50 mM NaCl at pH 7 and room temperature for 30-60 minutes. The production of the HEPES solution is known to persons skilled in the art and was described in J. Sambrook, E. F. Fritsch and T. Maniatis: Molecular Cloning: A Laboratory Manual Vol. I-III, Cold Spring Harbor Laboratory Press, 1982. The identification and quantification of the reaction product is carried out by means of analytical HPLC.
The cyclization of the linear fengycin-thiophenol substrate is carried out in an aqueous cyclization buffer comprised of 2-[4-(2-hydroxyethyl)-1-piperazinyl]-ethane sulfonic acid (HEPES, 25 mM) and sodium chloride (NaCl, 50 mM) at pH 7 in a total volume of 50 μL. The substrate concentration is 100 μM for standard cyclization reactions. The cyclization reaction is initiated by the addition of recombinant fengycin TE at an end concentration of 5 μM and stopped by the addition of 35 μL of 4% trifluoroacetic acid (TFA) in water after 4 hours. […]
With this measurement, the linear range for further kinetic studies is determined. […]

[2] = substrate: CC(C)C[C@H](NC(=O)[C@@H](CC(=O)O)NC(=O)[C@H](NC(=O)[C@H](CN)NC(=O)[C@@H](CC(C)C)NC(=O)[C@@H](CCC(=O)O)NC(=O)CC(C)O)C(C)C)C(=O)N[C@H](CC(C)C)C(=O)Sc1ccccc1; assay: cyclization kinetics with surfactin-peptide cyclase; assay type: biochemical; conditions: other: cyclization reaction; pH 7.0; 40.0 °C
Method: […] The production of the HEPES solution is known to persons skilled in the art and was described in J. Sambrook, E. F. Fritsch and T. Maniatis: Molecular Cloning: A Laboratory Manual Vol. I-III, Cold Spring Harbor Laboratory Press, 1982. The identification and quantification of the reaction product is carried out by means of analytical HPLC.
With this measurement, the linear range for further kinetic studies is determined. The reactions are stopped by the addition of 35 μL TFA (4% in water) and examined by analytic HPLC with a Nucleodur C18 column (Macherey and Nagel, 250/3, pore diameter: 100 Å, particle size: 3 μm) with the following gradient: 0-35 min, 30-60% acetonitrile/0.1% TFA in water/0.1% TFA; 0.4 mL/min, 40° C. Kinetic examinations are carried out at different points in time at substrate concentrations of 50 μM up to 1000 μm and the kinetic parameters KM and kcat are taken from the Lineweaver-Burk plot. For fengycin-thiophenol, a KM of 461 μm and a kcat of 0.33 min^−1 result from the cyclization reaction.
In the case of surfactin-peptide cyclase, kinetic reference data with a SNAC-substrate exists. In the case of surfactin-thiophenol, a KM of 126 μm and a kcat of 5.6 min^−1 are determined for the cyclization reaction, which corresponds to a kcat/KM value of 0.04 μm^−1 min^−1. Compared with that is the kinetic efficiency of surfactin-SNAC, represented by the kcat/KM value 0.0029 μm^−1 min^−1, 14 times less than with surfactin-thiophenol.

Protein	Km [1]	kcat [1]	Km [2]	kcat [2]	kcat/Km [2]
recombinated fengycin-peptide cyclase (Bacillus subtilis subsp. subtilis str. 168) (protein, recombinant fengycin TE) QNLFCFPPISGFGIYFKDLALLLNEKAAVYGFHFIEQDTRIEQYVNCMTDIQPEGPYVLLGYSAGGNLAFEVAQAMERKGLEVSDFIIVDAYLKEQPLPIDTGNDESAAYLPEAVREKVMKKKRNYQEYWAQLLNEGHIKASIHFIEAGIHPETSGHTGLTKWEGACGNYSEYTGFGAHKDMLEGTYAEKNADIILDILEKITSNQ	461 µM	0.0055 s⁻¹			
surfactin-peptide cyclase (Bacillus subtilis subsp. subtilis str. 168) (protein, purified, isolated thioesterase domains or peptide cyclases from NRPS or PKS systems) QIIFAFPPVLGYGLMYQNLSSRLPSYKLCAFDFIEEEDRLDRYADLIQKLQPEGPLTLFGYSAGCSLAFEAAKKLEEQGRIVQRIIMVDSYKKQGVSDLDGRTVESDVEALMNVNRDNEALNSEAVKHGLKQKTHAFYSYYVNLISTGQVKADIDLLTSGADFDMPEWLASWEEATTGVYRVKRGFGTHAEMLQGETLDRNAEILLEFLNTQT			126 µM	0.0933 s⁻¹	0.04 μm^−1 min^−1

— patent US8063181B2, “Method for the production of cyclic molecules” (ZYRUS Beteiligungsgesellschaft mbH & Co. Patent I KG, priority 2003, dated 2011)
